Target: t-Elf-1 (truncated Elf-1) (UniProt P32519 108-304)
Test: EMSA

Chain of t-Elf-1 (truncated Elf-1) (P32519 108-304): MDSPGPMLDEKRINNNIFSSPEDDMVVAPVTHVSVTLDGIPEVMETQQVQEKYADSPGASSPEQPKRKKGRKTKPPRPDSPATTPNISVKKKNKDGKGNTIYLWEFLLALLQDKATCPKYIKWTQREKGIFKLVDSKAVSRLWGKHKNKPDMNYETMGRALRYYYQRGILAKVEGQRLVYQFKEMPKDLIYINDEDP

B1: MSV LTR (dsDNA)
DNA 1: TCGGAGACGGAAGCGCGC
DNA 2: GCGCGCTTCCGTCTCCGA
Question: Does B1 bind?
Answer: Result: binds

From publication PMC2191257
